These results are taken from patent publication US20250136677A1 (ZOETIS SERVICES, published 2025).

Test [1] deals with T1, canine IL-31 protein (Canine_IL31) (canine).
T1 chain: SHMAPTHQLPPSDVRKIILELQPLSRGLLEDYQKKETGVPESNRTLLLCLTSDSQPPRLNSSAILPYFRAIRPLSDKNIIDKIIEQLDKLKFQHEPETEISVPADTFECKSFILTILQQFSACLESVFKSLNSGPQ
The test is described as follows: SPR (Biacore), IL-31 on chip, 1:1 fit. (In SPR one partner is held on a chip, and binding of the other changes the refractive index at the surface.)

In test [2] the target is T2, mutant feline IL-31 15H05 protein (Feline_IL31_15H05_mutant) (feline).
T2 construct: also called feline 15H05 mutant; 15H05 IL-31 mutant
T2 chain: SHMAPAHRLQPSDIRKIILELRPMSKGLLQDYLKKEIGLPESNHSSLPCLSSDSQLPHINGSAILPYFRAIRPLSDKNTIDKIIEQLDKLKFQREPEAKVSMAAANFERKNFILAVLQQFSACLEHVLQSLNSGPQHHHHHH
The test is described as follows: SPR (Biacore), IL-31 protein as surface capture; Biacore KD of Table 1, mutant IL-31 as surface capture; weak binding, about 78 times weaker than on wildtype feline. Here is the method:
(§1) The affinity with which candidate mAbs bind canine and feline IL-31 was determined using surface plasmon resonance (SPR) on a Biacore system (Biocore Life Sciences (GE Healthcare), Uppsala, Sweden). To avoid affinity differences associated with differential surface preparation that can occur when immobilizing antibodies to surfaces; a strategy was employed where IL-31 was directly conjugated to the surface. Immobilization was obtained by amine coupling 5 μg/mL IL-31 using N-hydroxysuccinimide (NHS)/1-Ethyl-3-(3-dimethylaminopropyl) carbodiimide (EDC) chemistry. Chips were quenched with ethanolamine and the affinity with which all candidate mAbs bound to the immobilized IL-31 was evaluated. All curves were fit to a 1:1 model. […] Results for affinity measurements are described herein.
(§2) Table 1 below describes the results for biacore analysis using multiple species of IL-31 protein as a surface capture.

For test [3], the target named is T2, mutant feline IL-31 15H05 protein …. The test is described as follows: indirect ELISA, IL-31 protein coated. The protocol:
(§3) For the indirect ELISA method, antibody binding to wildtype and feline IL-31 15H05 mutant proteins was assessed. All nine canine monoclonal antibodies (ZIL1, ZIL8, ZIL8, ZIL11, ZIL69, ZIL94, ZIL154, ZIL159, and ZIL171) were capable of binding to wildtype feline IL-31 and binding was impacted by mutations in the mAb 15H05 epitope region confirming the correct binding phenotype determined during the initial screening used to identify them. In comparison, the 11E12 antibody bound to the wild-type feline IL-31 and its binding was not impacted by the mutations in the 15H05 epitope region as evidenced by the data in FIG. 4. To confirm binding, biacore analysis was performed using canine, feline, equine, human, feline 15H05 mutant, and feline 11E12 mutant IL-31 proteins as surfaces and a single test concentration of antibody. Similar to ELISA observations, all antibodies tested bound to wildtype feline IL-31. In agreement with the data described above in this section, mouse antibodies 11E12 and 15H05 both bound to canine and feline IL-31 surfaces. Three additional antibodies where shown to have this dual binding property, ZIL69 (partial canine binding), ZIL94, and ZIL159. From this group of nine fully canine antibodies, only ZIL1 and ZIL9 cross-reacted with equine IL-31. Of note, antibody 15H05 was the only one of all assayed herein that bound to canine, feline, and equine IL-31 indicating some level of epitope conservation across the three species. In contrast, none of the antibodies described herein bound to human IL-31. Additional biacore surfaces were used to verify ELISA observations showing differential binding of antibodies to wildtype feline IL-31 and two proteins with mutations in the 15H05 (15H05 mutant) or 11E12 (11E12 mutant) epitopes. […] In agreement with the ELISA results, all fully canine antibodies were impacted by the 15H05 mutation with the exception of ZIL94, ZIL154, and ZIL171 (partially affected). Differing results can be attributed to differences in the two assay methodologies.
(In general: An ELISA detects its analyte on a solid surface through an enzyme-linked reagent.)

Test [4] has as its target T3, wildtype feline IL-31 protein (Feline_IL31_wildtype) (feline).
T3 construct: Full length feline IL-31 with C-terminal His tag, secreted from ExpiCHO cells; also called fIL-31
T3 chain: T2 chain with A103P, A105D
The test is described as follows: indirect ELISA, IL-31 protein coated. Here is the method: as §3

Test [5] has as its target T4, mutant feline IL-31 11E12 protein (Feline_IL31_11E12_mutant) (feline).
T4 construct: also called feline 11E12 mutant; 11E12 IL-31 mutant
T4 chain: T2 chain with D81A, I84A, A103P, A105D
The test is described as follows: SPR (Biacore), IL-31 protein as surface capture. The protocol:
as §1, §2

The target of test [6] is T3, wildtype feline IL-31 protein …. The test is described as follows: SPR (Biacore), IL-31 protein as surface capture. Here is the method:
as §1, §2

Test [7] addresses T5, equine IL-31 protein (Equine_IL31) (equine).
T5 construct: Recombinant equine IL-31
T5 chain: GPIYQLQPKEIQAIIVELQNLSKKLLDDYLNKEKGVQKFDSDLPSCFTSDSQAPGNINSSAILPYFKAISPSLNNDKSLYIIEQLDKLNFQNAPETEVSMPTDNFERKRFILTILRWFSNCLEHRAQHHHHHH
The test is described as follows: SPR (Biacore), IL-31 protein as surface capture. The protocol:
as §1, §2

Test [8] has as its target T1, canine IL-31 protein (Canine_IL31). The test is described as follows: SPR (Biacore), IL-31 protein as surface capture.
For test [9] the target is unchanged. The test is described as follows: cell-based or functional assay.
Test [10] deals with T3, wildtype feline IL-31 protein …. The test is described as follows: cell-based or functional assay.
Test [11] shares this target. The test is described as follows: cell-based or functional assay.

Numbering of substitutions follows the chain as printed.

B1: mouse anti IL-31 antibody 15H05 (antibody, mouse IgG1, kappa)
heavy: QVQLQQSAAELARPGASVKMSCKTSGYTFTSYTIHWIKQRPGQGLEWIGNINPTSGYTENNQRFKDKTTLTVDRSSNTAYLQLHSLTSEDSAVYFCARWGFKYDGEWSFDVWGAGTTVTVSSKTTPPSVYPLAPGSAAQTNSMVTLGCLVKGYFPEPVTVTWNSGSLSSGVHTFPAVLESDLYTLSSSVTVPSSPRPSETVTCNVAHPASSTKVDKKIVPRDCGCKPCICTVPEVSSVFIFPPKPKDVLTITLTPKVTCVVVDISKDDPEVQFSWFVDDVEVHTAQTQPREEQFNSTFRSVSELPIMHQDWLNGKEFKCRVNSAAFPAPIEKTISKTKGRPKAPQVYTIPPPKEQMAKDKVSLTCMITDFFPEDITVEWQWNGQPAENYKNTQPIMNTNGSYFVYSKLNVQKSNWEAGNTFTCSVLHEGLHNHHTEKSLSHSPGK
light: DIQMNQSPSSLSASLGDTITVTCRASQGISIWLSWYQQKPGNIPKVLINKASNLHIGVPPRFSGSGSGTHFTLTITSLQPEDIATYYCLQSQTYPLTFGGGTKLEINADAAPTVSIFPPSSEQLTSGGASVVCFLNNFYPKDINVKWKIDGSERQNGVLNSWTDQDSKDSTYSMSSTLTLTKDEYERHNSYTCEATHKTSTSPIVKSFNRNEC
notes: Mouse hybridoma antibody, IgG1 kappa; also called Mu-15H05; MU-15H05
In the case of B1, in [1], the koff (usually the rate constant with which the complex falls apart) is 6.56e-07 s⁻¹. Also, the kon (commonly the second-order rate constant of association) in [1] was determined as 135000 M⁻¹ s⁻¹. Moreover, the Kd (as a rule, the free concentration of one partner at which half of the binding sites on the other are occupied at equilibrium, for simple one-to-one binding) was 23.9 nM in [2]; 11.5 nM in test [5]; 0.306 nM in test [6]; 0.306 nM in test [7]; 0.00191 nM in [8]. Moreover, the “ELISA OD” value turned out to be 0.05 OD in test [3] and 1.94 OD in [4]. Also, in [9], the Inhibition of IL-31 induced pSTAT3 IC50 (µg/ml), Canine IL-31 on Canine DH82 cells came to 11.2 µg/ml. The “IC50, inhibition of feline IL-31-induced STAT3 phosphorylation, canine DH82 cells” value in [10] was 2.7 µg/mL. Besides, the “IC50, inhibition of feline IL-31-induced STAT3 phosphorylation, feline FCWF4 cells” value in test [10] amounted to 4.26 µg/mL. For the same molecule, in [11], the “Inhibition of IL-31 induced pSTAT3 IC50 (µg/ml), Feline IL-31 on Feline FCWF-4 cells” value turned out to be 6 µg/ml.
